Measured values published in patent US20240368250A1 (Ablynx, published 2024).

Experiments:
[1] = biological target: T1, Mouse serum albumin (MSA; Albumin Bioscience Cat No. 2601) (mouse, UniProt P07724 25-608); assay: SPR Biacore 8K+, MSA on C1 chip, pH 7.4, bivalent analyte fit (kd1)
[2] = biological target: T2, Human serum albumin (HSA; Sigma-Aldrich Cat No. A8763) (human, UniProt P02768 25-609); assay: SPR Biacore 8K+, HSA on C1 chip, pH 7.4, bivalent analyte fit (KD1)
[3] = biological target: T1, Mouse serum albumin (MSA; Albumin …); assay: SPR Biacore 8K+, MSA on C1 chip, pH 7.4, bivalent analyte fit (KD1)
[4] = biological target: T3, Human FcRn (biotinylated human FcRn) (human, UniProt P61769 21-119); assay: SPR Biacore 8K+, biotinylated hFcRn on SA chip (~700 RU), pH 6.0, bivalent analyte fit (ka1)
T3 construct: Biotinylated human FcRn captured on a Series S Sensor Chip SA; also called human neonatal Fc receptor; hFcRn

[5] = biological target: T1, Mouse serum albumin (MSA; Albumin …); assay: SPR Biacore 8K+, MSA on C1 chip, pH 7.4, bivalent analyte fit (ka1)
[6] = biological target: T2, Human serum albumin (HSA; Sigma-Aldrich …); assay: SPR Biacore 8K+, HSA on C1 chip, pH 7.4, bivalent analyte fit (ka1)
[7] = biological target: T2, Human serum albumin (HSA; Sigma-Aldrich …); assay: SPR Biacore 8K+, HSA on C1 chip, pH 7.4, bivalent analyte fit (kd1)
[8] = biological target: T3, Human FcRn (biotinylated human FcRn); assay: SPR Biacore 8K+, biotinylated hFcRn on SA chip (~700 RU), pH 6.0, bivalent analyte fit (kd1)
[9] = biological target: T3, Human FcRn (biotinylated human FcRn); assay: SPR Biacore 8K+, biotinylated hFcRn on SA chip (~700 RU), pH 6.0, bivalent analyte fit
[10] = biological target: T3, Human FcRn (biotinylated human FcRn); assay: SPR Biacore 8K+, biotinylated hFcRn on SA chip (~700 RU), pH 6.0, bivalent analyte fit (KD1)
[11] = biological target: T2, Human serum albumin (HSA; Sigma-Aldrich …); assay: SPR Biacore 8K+, HSA on C1 chip, pH 7.4, 1:1 fit
[12] = biological target: T1, Mouse serum albumin (MSA; Albumin …); assay: SPR Biacore 8K+, MSA on C1 chip, pH 7.4, 1:1 fit (off-rate only)
[13] = biological target: T3, Human FcRn (biotinylated human FcRn); assay: SPR Biacore 8K+, biotinylated hFcRn on SA chip (~1000-2000 RU), pH 6.0, no HSA, bivalent analyte fit (kd1)
[14] = biological target: T3, Human FcRn (biotinylated human FcRn); assay: SPR Biacore 8K+, biotinylated hFcRn on SA chip (~600 RU), pH 6.0, bivalent analyte fit (ka1)
[15] = biological target: T1, Mouse serum albumin (MSA; Albumin …); assay: SPR Biacore 8K+, MSA on CM5 chip, pH 7.4, 1:1 fit
[16] = biological target: T3, Human FcRn (biotinylated human FcRn); assay: SPR Biacore 8K+, biotinylated hFcRn on SA chip (~1000-2000 RU), pH 6.0, no HSA, bivalent analyte fit (ka1)
[17] = biological target: T3, Human FcRn (biotinylated human FcRn); assay: SPR Biacore 8K+, biotinylated hFcRn on SA chip (~600 RU), pH 6.0, bivalent analyte fit
[18] = biological target: T3, Human FcRn (biotinylated human FcRn); assay: SPR Biacore 8K+, biotinylated hFcRn on SA chip (~600 RU), pH 6.0, bivalent analyte fit (kd1)
[19] = biological target: T3, Human FcRn (biotinylated human FcRn); assay: SPR Biacore 8K+, biotinylated hFcRn on SA chip (~1000-2000 RU), pH 6.0, no HSA, bivalent analyte fit
[20] = biological target: T3, Human FcRn (biotinylated human FcRn); assay: SPR Biacore 8K+, biotinylated hFcRn on SA chip (~1000-2000 RU), pH 6.0, with 30 uM HSA, bivalent analyte fit (kd1); remark: no good fit possible
[21] = biological target: T1, Mouse serum albumin (MSA; Albumin …); assay: SPR Biacore 8K+, MSA on CM5 chip, pH 6.0, 1:1 fit
[22] = biological target: T2, Human serum albumin (HSA; Sigma-Aldrich …); assay: SPR Biacore 8K+, HSA on CM5 chip, pH 6.0, 1:1 fit
[23] = biological target: T3, Human FcRn (biotinylated human FcRn); assay: SPR Biacore 8K+, biotinylated hFcRn on SA chip (~1000-2000 RU), pH 6.0, no HSA, bivalent analyte fit (KD1)
[24] = biological target: T3, Human FcRn (biotinylated human FcRn); assay: SPR Biacore 8K+, biotinylated hFcRn on SA chip (~1000-2000 RU), pH 6.0, no HSA, 1:1 fit
[25] = biological target: T3, Human FcRn (biotinylated human FcRn); assay: SPR Biacore 8K+, biotinylated hFcRn on SA chip (~600 RU), pH 6.0, bivalent analyte fit (KD1)
[26] = biological target: T2, Human serum albumin (HSA; Sigma-Aldrich …); assay: SPR Biacore 8K+, HSA on CM5 chip, pH 7.4, 1:1 fit

B1: T-0263-00_TP123 (antibody, human IgG1, kappa)
heavy 1: not shown
heavy 2: EVQLVESGGGLVQPGGSLRLSCAASGFNIRDTYIHWVRQAPGKGLEWVARIYPTQGYTRYADSVKGRFTISADTSKNTAYLQMNSLRAEDTAVYYCSRWGGEGFYAMDYWGQGTLVTVSSASTKGPSVFPLAPSSKSTSGGTAALGCLVKDYFPEPVTVSWNSGALTSGVHTFPAVLQSSGLYSLSSVVTVPSSSLGTQTYICNVNHKPSNTKVDKKVEPKSCDKTHTCPPCPAPELLGGPSVFLFPPKPKDTLMISRTPEVTCVVVDVSHEDPEVKFNWYVDGVEVHNAKTKPREEQYNSTYRVVSVLTVLHQDWLNGKEYKCKVSNKALPAPIEKTISKAKGQPREPQVCTLPPSRDELTKNQVSLSCAVKGFYPSDIAVEWESNGQPENNYKTTPPVLDSDGSFFLVSKLTVDKSRWQQGNVFSCSVMHEALHNRFTQKSLSLSPGGGGGSGGGSEVQLVESGGGVVQPGGSLRLSCAASGFTFRSFGMSWVRQAPGKGPEWVSSISGSGSDTLYADSVKGRFTISRDNSKNTLYLQMNSLRPEDTALYYCTIGGSLSRSSQGTLVTVSSA
light: not shown
notes: Full-length IgG1 knob-in-hole with two C-terminal ALB23002-A (9GS), one on each heavy chain
- koff [1]: 0.0344 s⁻¹
- Kd [2]: 67.4 nM
- Kd [3]: 560 nM
- kon [4]: 63000 M⁻¹ s⁻¹
- kon [5]: 61400 M⁻¹ s⁻¹
- kon [6]: 37500 M⁻¹ s⁻¹
- koff [7]: 0.00253 s⁻¹
- koff [8]: 0.15 s⁻¹
- ka2 [9]: 1.7e-05 1/RUs
- kd2 [9]: 0.00059 s⁻¹
- Kd [10]: 2400 nM

B2: T-0263-00_TP121 (antibody, human IgG1, kappa)
heavy 1: not shown
heavy 2: EVQLVESGGGLVQPGGSLRLSCAASGFNIRDTYIHWVRQAPGKGLEWVARIYPTQGYTRYADSVKGRFTISADTSKNTAYLQMNSLRAEDTAVYYCSRWGGEGFYAMDYWGQGTLVTVSSASTKGPSVFPLAPSSKSTSGGTAALGCLVKDYFPEPVTVSWNSGALTSGVHTFPAVLQSSGLYSLSSVVTVPSSSLGTQTYICNVNHKPSNTKVDKKVEPKSCDKTHTCPPCPAPELLGGPSVFLFPPKPKDTLMISRTPEVTCVVVDVSHEDPEVKFNWYVDGVEVHNAKTKPREEQYNSTYRVVSVLTVLHQDWLNGKEYKCKVSNKALPAPIEKTISKAKGQPREPQVCTLPPSRDELTKNQVSLSCAVKGFYPSDIAVEWESNGQPENNYKTTPPVLDSDGSFFLVSKLTVDKSRWQQGNVFSCSVMHEALHNRFTQKSLSLSPG
light: not shown
notes: Full-length IgG1 knob-in-hole with one C-terminal ALB23002-A (9GS) on chain 1
- kon [4]: 71000 M⁻¹ s⁻¹
- Kd [11]: 76.4 nM
- koff [11]: 0.00204 s⁻¹
- kon [11]: 26700 M⁻¹ s⁻¹
- koff [12]: 0.0385 s⁻¹
- koff [8]: 0.16 s⁻¹
- ka2 [9]: 1.8e-05 1/RUs
- kd2 [9]: 0.00036 s⁻¹
- Kd [10]: 2300 nM

B3: TP006 (Fc fusion)
chain 1: DVQLVESGGGLVQPGGSLRLSCAASGLTFSTNPMYWYRQAPGKQRELVASISSRGITNYADSVKGRFTISRDNSKNTVYLQMNSLRPEDTAVYYCRLASLSSGTVYWGQGTLVTVSSDKTHTCPPCPAPEAAGGPSVFLFPPKPKDTLMISRTPEVTCVVVDVSQEDPEVQFNWYVDGVEVHNAKTKPREEQFNSTYRVVSVLTVLHQDWLNGKEYKCKVSNKGLPSSIEKTISKAKGQPREPQVYTLPPCQEEMTKNQVSLWCLVKGFYPSDIAVEWESNGQPENNYKTTPPVLDSDGSFFLYSKLTVDKSRWQEGNVFSCSVMHEALHNHYTQKSLSLSLGGGGGSGGGGSGGGGSGGGGSGGGGSGGGGSGGGGSEVQLVESGGGVVQPGGSLRLSCAASGFTFRSFGMSWVRQAPGKGPEWVSSISGSGSDTLYADSVKGRFTISRDNSKNTLYLQMNSLRPEDTALYYCTIGGSLSRSSQGTLVTVSS
chain 2: DKTHTCPPCPAPEAAGGPSVFLFPPKPKDTLMISRTPEVTCVVVDVSQEDPEVQFNWYVDGVEVHNAKTKPREEQFNSTYRVVSVLTVLHQDWLNGKEYKCKVSNKGLPSSIEKTISKAKGQPREPQVCTLPPSQEEMTKNQVSLSCAVKGFYPSDIAVEWESNGQPENNYKTTPPVLDSDGSFFLVSKLTVDKSRWQEGNVFSCSVMHEALHNHYTQKSLSLSLG
notes: IgG4 FALA Fc (knob-in-hole); irrelevant ISVD N-terminal and ALB23002 C-terminal (35GS) on chain 1; chain 2 is hinge-Fc only
- koff [13]: 0.042 s⁻¹
- kon [14]: 9440 M⁻¹ s⁻¹
- Kd [15]: 120 nM
- koff [15]: 0.0028 s⁻¹
- kon [15]: 23000 M⁻¹ s⁻¹
- kon [16]: 140000 M⁻¹ s⁻¹
- ka2 [17]: 10.7 1/RUs
- kd2 [17]: 71.9 s⁻¹
- koff [18]: 0.00402 s⁻¹
- ka2 [19]: 0.00013 1/RUs
- kd2 [19]: 0.002 s⁻¹
- koff [20]: 0.0016 s⁻¹
- Kd [21]: 84 nM
- koff [21]: 0.0026 s⁻¹
- kon [21]: 31000 M⁻¹ s⁻¹
- Kd [22]: 32 nM
- koff [22]: 0.0017 s⁻¹
- kon [22]: 54000 M⁻¹ s⁻¹
- Kd [23]: 290 nM
- Kd [24]: 18 nM
- koff [24]: 0.083 s⁻¹
- kon [24]: 4.5e+06 M⁻¹ s⁻¹
- Kd [25]: 426 nM
- Kd [26]: 67 nM
- koff [26]: 0.0017 s⁻¹
- kon [26]: 26000 M⁻¹ s⁻¹
